Test results published in publication PMC9482650, “Quantitative fragmentomics allow affinity mapping of interactomes” (Nature Communications, 2022).

Molecular target: T1, DLG3_1, Q92796
T1 sequence (Q92796 125-227, limits assumed, looked up): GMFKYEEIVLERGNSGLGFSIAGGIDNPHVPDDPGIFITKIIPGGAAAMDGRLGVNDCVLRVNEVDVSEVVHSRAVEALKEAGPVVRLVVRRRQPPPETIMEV
Assay: holdup assay
Design: key: below the threshold = too weak to quantify, mostly under pKd 3.1 to 4
Settings: plain residues with an end cap or a label only (N-terminal biotin on a linker: ado-ado)

Binder | pKd
GQSVDLVFPV [AKIP1, Q9NQ31] | below the threshold
DQPLEKSTKL [AKAP10, O43572] | below the threshold

Molecular target: DLG4_3, P78352
Sequence (P78352 306-403): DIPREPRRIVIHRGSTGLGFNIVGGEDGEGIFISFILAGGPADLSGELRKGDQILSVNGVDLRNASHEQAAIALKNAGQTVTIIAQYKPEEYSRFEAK
Assay: holdup assay
Design: key: below the threshold = too weak to quantify, mostly under pKd 3.1 to 4
Settings: plain residues with an end cap or a label only (N-terminal biotin on a linker: ado-ado)

Binder | pKd
GQSVDLVFPV [AKIP1, Q9NQ31] | below the threshold
DQPLEKSTKL [AKAP10, O43572] | below the threshold

Molecular target: IL16_1, Q14005
Sequence (Q14005 210-306): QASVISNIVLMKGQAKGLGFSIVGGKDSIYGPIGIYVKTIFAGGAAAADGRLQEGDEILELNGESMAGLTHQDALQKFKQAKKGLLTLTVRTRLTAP
Assay: holdup assay
Design: key: below the threshold = too weak to quantify, mostly under pKd 3.1 to 4
Settings: plain residues with an end cap or a label only (N-terminal biotin on a linker: ado-ado)

Binder | pKd
GQSVDLVFPV [AKIP1, Q9NQ31] | below the threshold
DQPLEKSTKL [AKAP10, O43572] | below the threshold

Molecular target: T2, LNX2_2, Q8N448
T2 sequence (Q8N448 334-432, limits assumed, looked up): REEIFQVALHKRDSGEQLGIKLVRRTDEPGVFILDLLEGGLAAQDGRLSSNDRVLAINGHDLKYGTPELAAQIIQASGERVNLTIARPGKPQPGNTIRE
Assay: holdup assay
Design: key: below the threshold = too weak to quantify, mostly under pKd 3.1 to 4
Settings: plain residues with an end cap or a label only (N-terminal biotin on a linker: ado-ado)

Binder | pKd
GQSVDLVFPV [AKIP1, Q9NQ31] | 3.87
DQPLEKSTKL [AKAP10, O43572] | below the threshold

Molecular target: T3, SNTA1, Q13424
T3 sequence (Q13424 82-180, limits assumed, looked up): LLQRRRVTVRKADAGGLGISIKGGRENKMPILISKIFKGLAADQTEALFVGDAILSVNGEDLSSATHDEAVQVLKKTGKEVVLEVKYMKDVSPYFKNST
Assay: holdup assay
Design: key: below the threshold = too weak to quantify, mostly under pKd 3.1 to 4
Settings: plain residues with an end cap or a label only (N-terminal biotin on a linker: ado-ado)

Binder | pKd
GQSVDLVFPV [AKIP1, Q9NQ31] | below the threshold
DQPLEKSTKL [AKAP10, O43572] | 3.71

Molecular target: PDLIM1, O00151
Sequence (O00151 1-87): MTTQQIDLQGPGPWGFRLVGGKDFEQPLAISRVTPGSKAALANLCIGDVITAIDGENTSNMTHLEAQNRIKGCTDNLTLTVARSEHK
Assay: holdup assay
Design: key: below the threshold = too weak to quantify, mostly under pKd 3.1 to 4
Settings: plain residues with an end cap or a label only (N-terminal biotin on a linker: ado-ado)

Binder | pKd
GQSVDLVFPV [AKIP1, Q9NQ31] | below the threshold
DQPLEKSTKL [AKAP10, O43572] | below the threshold

Molecular target: T4, PCLO, Q9Y6V0
T4 sequence (Q9Y6V0 4491-4600, limits assumed, looked up): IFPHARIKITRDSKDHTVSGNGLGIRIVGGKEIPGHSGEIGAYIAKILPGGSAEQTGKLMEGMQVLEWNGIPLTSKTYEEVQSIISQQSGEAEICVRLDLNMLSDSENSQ
Assay: holdup assay
Design: key: below the threshold = too weak to quantify, mostly under pKd 3.1 to 4
Settings: plain residues with an end cap or a label only (N-terminal biotin on a linker: ado-ado)

Binder | pKd
GQSVDLVFPV [AKIP1, Q9NQ31] | below the threshold
DQPLEKSTKL [AKAP10, O43572] | below the threshold

Molecular target: Inadl_4, Q8NI35
Sequence (Q8NI35 547-651): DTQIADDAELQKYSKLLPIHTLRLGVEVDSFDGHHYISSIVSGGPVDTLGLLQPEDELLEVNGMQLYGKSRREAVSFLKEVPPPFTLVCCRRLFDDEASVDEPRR
Assay: holdup assay
Design: key: below the threshold = too weak to quantify, mostly under pKd 3.1 to 4
Settings: plain residues with an end cap or a label only (N-terminal biotin on a linker: ado-ado)

Binder | pKd
GQSVDLVFPV [AKIP1, Q9NQ31] | below the threshold
DQPLEKSTKL [AKAP10, O43572] | below the threshold

Molecular target: IL16_3, Q14005
Sequence (Q14005 1107-1207): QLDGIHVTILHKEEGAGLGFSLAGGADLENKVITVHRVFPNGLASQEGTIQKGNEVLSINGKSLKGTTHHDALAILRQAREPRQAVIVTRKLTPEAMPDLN
Assay: holdup assay
Design: key: below the threshold = too weak to quantify, mostly under pKd 3.1 to 4
Settings: plain residues with an end cap or a label only (N-terminal biotin on a linker: ado-ado)

Binder | pKd
GQSVDLVFPV [AKIP1, Q9NQ31] | below the threshold
DQPLEKSTKL [AKAP10, O43572] | below the threshold

Molecular target: NHERF4_1, Q86UT5-2
Sequence (Q86UT5 other isoform, or with tags, fused parts or gaps): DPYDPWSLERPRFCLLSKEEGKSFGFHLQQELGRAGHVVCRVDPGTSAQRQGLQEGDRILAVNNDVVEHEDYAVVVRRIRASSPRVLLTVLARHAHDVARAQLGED
Assay: holdup assay
Design: key: below the threshold = too weak to quantify, mostly under pKd 3.1 to 4
Settings: plain residues with an end cap or a label only (N-terminal biotin on a linker: ado-ado)

Binder | pKd
GQSVDLVFPV [AKIP1, Q9NQ31] | below the threshold
DQPLEKSTKL [AKAP10, O43572] | 4.28

Molecular target: PARD3_3, Q8TEW0
Sequence (Q8TEW0 582-685): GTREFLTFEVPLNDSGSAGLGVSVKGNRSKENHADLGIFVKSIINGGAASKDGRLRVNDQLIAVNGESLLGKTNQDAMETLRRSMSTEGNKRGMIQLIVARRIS
Assay: holdup assay
Design: key: below the threshold = too weak to quantify, mostly under pKd 3.1 to 4
Settings: plain residues with an end cap or a label only (N-terminal biotin on a linker: ado-ado)

Binder | pKd
GQSVDLVFPV [AKIP1, Q9NQ31] | 3.66
DQPLEKSTKL [AKAP10, O43572] | below the threshold

Molecular target: GRIP2_3, Q9C0E4
Sequence (Q9C0E4 238-339): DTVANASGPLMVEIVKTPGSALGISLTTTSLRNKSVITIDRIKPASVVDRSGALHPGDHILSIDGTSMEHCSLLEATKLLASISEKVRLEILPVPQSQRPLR
Assay: holdup assay
Design: key: below the threshold = too weak to quantify, mostly under pKd 3.1 to 4
Settings: plain residues with an end cap or a label only (N-terminal biotin on a linker: ado-ado)

Binder | pKd
GQSVDLVFPV [AKIP1, Q9NQ31] | below the threshold
DQPLEKSTKL [AKAP10, O43572] | below the threshold

Molecular target: LIMK2, P53671
Sequence (P53671 143-248): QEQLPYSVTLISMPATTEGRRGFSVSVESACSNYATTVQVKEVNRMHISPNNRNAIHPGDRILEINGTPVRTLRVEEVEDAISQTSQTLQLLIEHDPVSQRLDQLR
Assay: holdup assay
Design: key: below the threshold = too weak to quantify, mostly under pKd 3.1 to 4
Settings: plain residues with an end cap or a label only (N-terminal biotin on a linker: ado-ado)

Binder | pKd
GQSVDLVFPV [AKIP1, Q9NQ31] | below the threshold
DQPLEKSTKL [AKAP10, O43572] | below the threshold

Molecular target: DLG4_2, P78352
Sequence (P78352 155-259): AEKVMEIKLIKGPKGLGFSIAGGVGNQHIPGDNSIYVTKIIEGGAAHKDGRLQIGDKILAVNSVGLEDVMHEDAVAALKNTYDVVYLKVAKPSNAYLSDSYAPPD
Assay: holdup assay
Design: key: below the threshold = too weak to quantify, mostly under pKd 3.1 to 4
Settings: plain residues with an end cap or a label only (N-terminal biotin on a linker: ado-ado)

Binder | pKd
GQSVDLVFPV [AKIP1, Q9NQ31] | below the threshold
DQPLEKSTKL [AKAP10, O43572] | below the threshold

Molecular target: T5, FRMPD1, Q5SYB0
T5 sequence (Q5SYB0 52-145, limits assumed, looked up): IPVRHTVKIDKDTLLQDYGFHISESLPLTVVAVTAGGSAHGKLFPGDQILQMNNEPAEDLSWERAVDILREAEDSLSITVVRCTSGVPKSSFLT
Assay: holdup assay
Design: key: below the threshold = too weak to quantify, mostly under pKd 3.1 to 4
Settings: plain residues with an end cap or a label only (N-terminal biotin on a linker: ado-ado)

Binder | pKd
GQSVDLVFPV [AKIP1, Q9NQ31] | below the threshold
DQPLEKSTKL [AKAP10, O43572] | below the threshold

Molecular target: IL16_4, Q14005
Sequence (Q14005 1229-1329): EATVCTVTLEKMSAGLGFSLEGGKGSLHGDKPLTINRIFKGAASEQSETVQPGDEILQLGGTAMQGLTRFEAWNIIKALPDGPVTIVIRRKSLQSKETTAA
Assay: holdup assay
Design: key: below the threshold = too weak to quantify, mostly under pKd 3.1 to 4
Settings: plain residues with an end cap or a label only (N-terminal biotin on a linker: ado-ado)

Binder | pKd
GQSVDLVFPV [AKIP1, Q9NQ31] | below the threshold
DQPLEKSTKL [AKAP10, O43572] | below the threshold

Molecular target: Inadl_8, Q8NI35
Sequence (Q8NI35 1425-1530): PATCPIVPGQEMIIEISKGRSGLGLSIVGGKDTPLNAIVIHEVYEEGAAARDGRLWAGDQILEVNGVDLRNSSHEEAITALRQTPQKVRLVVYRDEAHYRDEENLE
Assay: holdup assay
Design: key: below the threshold = too weak to quantify, mostly under pKd 3.1 to 4
Settings: plain residues with an end cap or a label only (N-terminal biotin on a linker: ado-ado)

Binder | pKd
GQSVDLVFPV [AKIP1, Q9NQ31] | below the threshold
DQPLEKSTKL [AKAP10, O43572] | below the threshold

Molecular target: HTRA2, O43464
Sequence (O43464 355-458): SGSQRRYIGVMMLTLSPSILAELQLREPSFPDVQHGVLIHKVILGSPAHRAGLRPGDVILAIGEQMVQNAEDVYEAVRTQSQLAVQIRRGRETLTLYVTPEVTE
Assay: holdup assay
Design: key: below the threshold = too weak to quantify, mostly under pKd 3.1 to 4
Settings: plain residues with an end cap or a label only (N-terminal biotin on a linker: ado-ado)

Binder | pKd
GQSVDLVFPV [AKIP1, Q9NQ31] | 3.54
DQPLEKSTKL [AKAP10, O43572] | below the threshold

Molecular target: T6, LIN7B, Q9HAP6
T6 sequence (Q9HAP6 88-185, limits assumed, looked up): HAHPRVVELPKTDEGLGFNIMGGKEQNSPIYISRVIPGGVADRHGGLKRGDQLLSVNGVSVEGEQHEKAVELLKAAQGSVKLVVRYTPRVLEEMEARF
Assay: holdup assay
Design: key: below the threshold = too weak to quantify, mostly under pKd 3.1 to 4
Settings: plain residues with an end cap or a label only (N-terminal biotin on a linker: ado-ado)

Binder | pKd
GQSVDLVFPV [AKIP1, Q9NQ31] | below the threshold
DQPLEKSTKL [AKAP10, O43572] | below the threshold

Molecular target: T7, SNTG2, Q9NY99
T7 sequence (Q9NY99 68-166, limits assumed, looked up): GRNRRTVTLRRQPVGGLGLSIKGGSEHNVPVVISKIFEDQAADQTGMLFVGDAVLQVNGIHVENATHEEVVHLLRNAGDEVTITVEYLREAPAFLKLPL
Assay: holdup assay
Design: key: below the threshold = too weak to quantify, mostly under pKd 3.1 to 4
Settings: plain residues with an end cap or a label only (N-terminal biotin on a linker: ado-ado)

Binder | pKd
GQSVDLVFPV [AKIP1, Q9NQ31] | below the threshold
DQPLEKSTKL [AKAP10, O43572] | 3.64

Molecular target: T8, PDZRN3_1, Q9UPQ7
T8 sequence (Q9UPQ7 244-349, limits assumed, looked up): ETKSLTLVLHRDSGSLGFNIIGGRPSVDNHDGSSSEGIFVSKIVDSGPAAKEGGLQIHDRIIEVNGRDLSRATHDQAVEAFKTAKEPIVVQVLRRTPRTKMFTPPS
Assay: holdup assay
Design: key: below the threshold = too weak to quantify, mostly under pKd 3.1 to 4
Settings: plain residues with an end cap or a label only (N-terminal biotin on a linker: ado-ado)

Binder | pKd
GQSVDLVFPV [AKIP1, Q9NQ31] | 3.47
DQPLEKSTKL [AKAP10, O43572] | 3.79

Molecular target: T9, MPP2, Q14168
T9 sequence (Q14168 180-250, limits assumed, looked up): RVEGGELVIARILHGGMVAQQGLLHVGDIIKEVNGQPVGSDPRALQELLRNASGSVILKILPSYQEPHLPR
Assay: holdup assay
Design: key: below the threshold = too weak to quantify, mostly under pKd 3.1 to 4
Settings: plain residues with an end cap or a label only (N-terminal biotin on a linker: ado-ado)

Binder | pKd
GQSVDLVFPV [AKIP1, Q9NQ31] | below the threshold
DQPLEKSTKL [AKAP10, O43572] | below the threshold

Molecular target: T10, RHPN1, Q8TCX5
T10 sequence (Q8TCX5 508-602, limits assumed, looked up): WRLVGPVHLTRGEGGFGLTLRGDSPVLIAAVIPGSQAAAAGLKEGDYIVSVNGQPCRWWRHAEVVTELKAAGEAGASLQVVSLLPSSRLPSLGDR
Assay: holdup assay
Design: key: below the threshold = too weak to quantify, mostly under pKd 3.1 to 4
Settings: plain residues with an end cap or a label only (N-terminal biotin on a linker: ado-ado)

Binder | pKd
GQSVDLVFPV [AKIP1, Q9NQ31] | below the threshold
DQPLEKSTKL [AKAP10, O43572] | 3.96

Molecular target: FRMPD2_1, Q68DX3
Sequence (Q68DX3 770-861): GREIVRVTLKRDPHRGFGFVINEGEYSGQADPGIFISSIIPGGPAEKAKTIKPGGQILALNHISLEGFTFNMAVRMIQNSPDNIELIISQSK
Assay: holdup assay
Design: key: below the threshold = too weak to quantify, mostly under pKd 3.1 to 4
Settings: plain residues with an end cap or a label only (N-terminal biotin on a linker: ado-ado)

Binder | pKd
GQSVDLVFPV [AKIP1, Q9NQ31] | below the threshold
DQPLEKSTKL [AKAP10, O43572] | below the threshold

Molecular target: HTRA1, Q92743
Sequence (Q92743 360-477): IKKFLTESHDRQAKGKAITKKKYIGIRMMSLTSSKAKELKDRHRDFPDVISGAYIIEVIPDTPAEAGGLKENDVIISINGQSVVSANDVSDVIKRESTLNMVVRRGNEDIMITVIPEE
Assay: holdup assay
Design: key: below the threshold = too weak to quantify, mostly under pKd 3.1 to 4
Settings: plain residues with an end cap or a label only (N-terminal biotin on a linker: ado-ado)

Binder | pKd
GQSVDLVFPV [AKIP1, Q9NQ31] | 4.15
DQPLEKSTKL [AKAP10, O43572] | below the threshold

Molecular target: T11, TX1BP3, O14907
T11 sequence (O14907 10-122, limits assumed, looked up): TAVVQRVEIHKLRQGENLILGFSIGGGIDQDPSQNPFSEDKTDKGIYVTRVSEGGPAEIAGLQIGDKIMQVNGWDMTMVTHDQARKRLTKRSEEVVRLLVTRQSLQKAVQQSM
Assay: holdup assay
Design: key: below the threshold = too weak to quantify, mostly under pKd 3.1 to 4
Settings: plain residues with an end cap or a label only (N-terminal biotin on a linker: ado-ado)

Binder | pKd
GQSVDLVFPV [AKIP1, Q9NQ31] | below the threshold
DQPLEKSTKL [AKAP10, O43572] | below the threshold

Molecular target: SNX27, Q96L92
Assay: holdup assay
Design: key: below the threshold = too weak to quantify, mostly under pKd 3.1 to 4
Settings: plain residues with an end cap or a label only (N-terminal biotin on a linker: ado-ado)

Binder | pKd
GQSVDLVFPV [AKIP1, Q9NQ31] | 3.84
DQPLEKSTKL [AKAP10, O43572] | 5.08
